The text below walks through data of patent publication US9217032B2, “Methods for treating colorectal cancer” (LES LABORATOIRES SERVIER, priority 2010, dated 2015).

Assay [1] concerns SW620 metastatic colorectal cancer cells. Briefly: Growth of SW620 cells in culture, monoclonal antibodies. Conditions: for reduction of growth of SW620 cells compared to control antibody: MAb1-MAb4, 48 hours; for Cell numbers: SW620, 48 hours, treated every 12 hours, average cells per well minus cells seeded (T0), CT antibody-T0 158556. Type of assay: cell-based, human. Here is the method: (§1) SW620 cells were seeded into 6-well plates, serum-starved overnight, then treated every 12 hours with PBS, 3 microgram/ml control antibody (Mouse anti-human IgG1, Calbiochem, Ref #411451) or four different anti-PG monoclonal antibodies, MAb3, MAb4, MAb2, and MAb1. The experiment was carried out in duplicate, and the technician was blinded as to the contents of the treatment solutions. Forty-eight hours after the start of the treatments the number of surviving cells in each well were counted six times and averaged.
In a separate experiment, SW620 cells were seeded into 6-well plates (100,000 cells per well) and treated similarly above with 5 μg/ml of anti-hPG monoclonal antibodies 5-23 (i.e., MAb5-MAb23) or 5 μg/ml control antibody. After 48 hours the number of viable cells were counted from which the number of cells at the beginning of the experiment (i.e., T0) were subtracted. The number of surviving cells in the specific antibody treated wells was then expressed as a percentage of the control.

Assay [2] deals with T84 metastatic colorectal cancer cells. As to the kind of experiment: Growth of T84 cells in culture. The assay is classed as cell-based, human. To be noted: FIG. 7; P value 0.0370 Mann Whitney. The protocol: as §1
The methods employed for this experiment were similar to those used to measure the effect of anti-progastrin monoclonal antibodies on SW620 cells, except that the anti-progastrin antibody used was anti-hPG MAb3.

Assay [3] has the same test system. Briefly: Pre-treatment of T84 cells: ALDH1 positive cells (ALDEFLUOR). The assay is classed as cell-based, human. To be noted: pre-treatment 72 hours, 1 μg/ml, FIG. 24. The protocol: (§2) Cells tested were from the metastatic colorectal cancer cell lines T84 and SW620. Cells were first grown in conventional adherent cultureware for 72 hours in the presence of the anti-progastrin monoclonal antibody MAb3 (1 μg/ml), a control monoclonal antibody, the chemotherapeutic agent 5-fluorouracil (5FU 10 μM), or the solvent dimethylsulfoxide (DMSO). After treatment, cells were subjected to two assays. In the first, the percentage of cells positive for the cancer stem cell marker ALDH1 were determined using an ALDEFLUOR kit (Stemcell Technologies). In the second assay, for each treatment group, cells were plated into six wells of low adherence 96 well-plates at a density of 500 cells per well in 100 μl of serum-free medium containing bFGF and EGF and grown for 11 days without further treatment. After the end of this period, the number of spheroids per well was then counted.

The test system of the next assay is SW620 cells. Briefly: Hepatic metastases by SW620 cell xenografts in nude mice, monoclonal antibody. The assay is classed as in vivo, BALBc/nude mice. The protocol:
A total of 5×10^6 SW620 cells were injected into the spleen of each of 20 BALBc/nude mice at age 5 weeks old. Two minutes after injection of the cells, the spleens were surgically removed. After recovery, mice were randomly divided into two groups, each of which was subjected to one of two different treatments. Specifically, 10 mice were injected with a control antibody (anti-human IgG1Fc) diluted in PBS, and 10 mice were injected with anti-hPG monoclonal antibody MAb3, also diluted in PBS. The dose of antibodies was 8 mg/kg in a volume of 150 microliters. Injections were made intraperitoneally twice per week for six weeks. Once per week each mouse was weighed. Six weeks later, after the course of injections was finished, the mice were euthanized with carbon dioxide and the livers were removed and the number of visible metastases present was counted.

Assay [4] concerns SW620 colorectal cancer cells. As to the kind of experiment: Initiation of new tumors after transplantation of cells from treated metastases. The assay is classed as in vivo, BALBc/nude mice. To be noted: 6,500 cells subcutaneously into thighs of two nude mice; tumor volume; FIG. 29. Here is the method:
(§3) Using standard techniques, immunodeficient BALBc/nude mice were given intra-splenic injections of human metastatic SW620 colorectal cancer cells. The mice were then administered the anti-hPG monoclonal antibody MAb3 or a control monoclonal antibody twice per week for a total of six weeks. For each antibody, the dose was 8 mg/kg. At the end of the treatment period tissue was dissected from metastases from both treated and control mice. Tumor cells were disaggregated by treatment of the dissected tissue with Accumax, filtered and counted. A total of 23,800 viable tumor cells were obtained from metastatic tissue from the mice treated with MAb3, and 36,400 were obtained from control mice.
(§4) For the spheroid test, for each of the treated and control cells, 2,000 cells/well were seeded into five wells of low adherence cultureware in M11 medium supplemented with bFGF and EGF. Cells were grown for seven days, and then the number of spheroids that formed in each well was counted. For the transplantation test, spheroids developing from cells isolated from treated and control metastases were pooled, disaggregated and counted. A total of 20,000 cells were obtained from spheroids derived from treated metastases, and 110,000 cells were obtained from spheroids derived from control metastases. […] Tumor volume was then calculated through time in both animals.

The test system of assay [5] is SW620 metastatic colorectal cancer cells. As to the kind of experiment: Pre-treatment of SW620 cells: ALDH1 positive cells (ALDEFLUOR). To be noted: pre-treatment 72 hours, 1 μg/ml, FIG. 25. The assay is classed as cell-based, human. The protocol: as §2
Assay [6] relates to SW620 colorectal cancer cells. Briefly: Cells isolated from SW620 metastases of treated nude mice: cell count and spheroid growth. Type of assay: in vivo, BALBc/nude mice. The protocol: as §3, §4
Assay [7] has as its system CRC1 primary colorectal cancer cells. Briefly: Spheroid formation by CRC1 cells in low adherence culture, monoclonal antibodies. Type of assay: cell-based, human. Conditions: CRC1, 3 μg/ml; p<0.05 one-way ANOVA with Bonferroni; FIG. 20. The protocol:
CRC1 cells were obtained from a human colon carcinoma biopsy according to standard procedures. After being dissociated in Accumax (Sigma) for 45 minutes at 37° C., cells were plated in low adherence 96 well-plates (Corning) at a density of 100 cells per well in M11 medium (DMEM/F12 with 20 ng/ml EGF, 10 ng/ml FGF, 20 μg/ml insulin, N2 supplement, 2 μg/ml cyproflaxin, 5 μg/ml gentamycin and 3 mg/ml glucose). For each treatment arm, 10 wells were used. Starting on the first day, cells were treated twice daily with one of four different anti-progastrin monoclonal antibodies, MAb5, MAb8, MAb13 or MAb16 (3 μg/ml) or the same concentration of monoclonal antibody P3X63Ag8 (ATCC, Ref TIB-9) or medium with no antibody added as controls. Thereafter, treatment was performed once daily for 8 days. Spheres were photographed daily for subsequent counting. All experiments were carried out in blinded fashion. After the conclusion of the experiment, the number of spheres from each treatment art was counted.

For assay [8] the test system is unchanged. As to the kind of experiment: Pre-treatment of CRC1 cells: spheroids in low adherence culture. The assay is classed as cell-based, human. Conditions: 72 hours pre-treatment, then 7 days low adherence without antibody, FIG. 23, MAb5, MAb8, MAb16 p<0.05. Here is the method:
(§5) CRC1 cells were obtained from a human colon carcinoma biopsy according to standard procedures. After being dissociated in Accumax (Sigma) for 45 minutes at 37° C., CRC1 cells (100,000 cells/well) were grown under conventional adherent culture conditions in serum free DMEM medium for 72 hours in the presence or absence of anti-hPG monoclonal antibodies MAb5, MAb8, MAb13 or MAb16. Experiments were carried out in blinded fashion. At the end of the treatment period, two different assays were performed on the cells. First, the percentage of cells expressing ALDH1, a marker of colorectal cancer stem cells, was determined by FACS. In the second assay, for each treatment group, 200 cells/well were plated in six wells of a low adherence 24-well plate in 500 μl of serum-free M11 medium supplemented with bFGF and EGF, and grown for 7 days without further treatment. At the end of this period, photographs were taken and the number of spheres per well was counted, and sphere surface area measured.

Assay [9] shares this test system. Briefly: Pre-treatment of CRC1 cells: ALDH1 expressing cells by FACS. The assay is classed as cell-based, human. To be noted: 72 hours in conventional adherent culture; FIG. 22. Here is the method:
as §5
(In flow cytometry, cells or beads pass a laser one at a time.)

B1: MAb4: murine N-terminal anti-hPG monoclonal antibody, hybridoma 20D2C3G2, VH SEQ ID NO:14, VL SEQ ID NO:15 (antibody, V domains shown)
VH: QVQLQQSGAELMKPGASVKISCKATGYTFSSSWIEWLKQRPGHGLEWIGEFLPGSGSTDYNEKFKGKATFTADTSSDTAYMLLSSLTSEDSAVYYCATDGNYDWFAYWGQGTLVTVSA
VL: DLVMTQTPLSLPVSLGDQASISCRSSQSLVHSSGVTYLHWYLQKPGQSPKLLIYKVSNRFSGVPDRFSGSGSGTDFTLKISRVEAEDLGVYFCSQSTHVPPTFGSGTKLEIK
On to B1, for which, in assay [1], the “reduction of growth of SW620 cells compared to control antibody” value is recorded as “more effective than the others” and the Cell numbers was 52984.

B2: MAb3: murine N-terminal anti-hPG monoclonal antibody, hybridoma 6B5B11C10, VH SEQ ID NO:12, VL SEQ ID NO:13 (antibody, V domains shown)
VH: EVQLQQSGTVLARPGASVKMSCKASGYIFTSYWVHWVKQRPGQGLEWIGGFYPGNSDSRYNQKFKGKATLTAVTSASTAYMDLSSLTNEDSAVYFCTRRDSPQYWGQGTTLTVSS
VL: DVLMTQTPLSLPVSLGDQASISCRSSQSIVHSNGNTYLEWYLQKPGQSPKLLIYKVSNRFSGVPDRFSGSGSGTDFTLKISRLEAEDLGVYYCFQGSHVPFTFGGGTKLEIK
Turning to B2, in [2], the “reduction of growth of T84 cells compared to control antibody” value is “effective to reduce the growth of T84 metastatic colorectal cancer cells”. Also, the “number of ALDH1 positive cells compared to control antibody” value in assay [3] was “reduced”. In addition, the “mean weight of liver metastases” value in the assay on SW620 cells (8 mg/kg i.p. twice per week, six weeks, control mice 167 mg, not statistically significant) is on record as 96 mg. Besides, in the assay with SW620 cells (8 mg/kg i.p. twice per week, six weeks, p=0.0372), the “decrease of mean number of metastases versus control antibody” value is reported as 41%. For the same molecule, the “mean number of metastases” value in the assay with SW620 cells (8 mg/kg intraperitoneally twice per week for six weeks, control antibody 7.3) turned out to be 4.3. The “ability to initiate new tumor growth after transplantation” value in assay [4] is “reduced”. The “number of ALDH1 positive cells compared to control antibody” value in assay [5] was “reduced”. For the same molecule, in assay [1], the “reduction of growth of SW620 cells compared to control antibody” value is reported as “more effective than the others” and the Cell numbers is on record as 50056. The “viable tumor cells obtained from metastatic tissue” value in [6] (8 mg/kg twice per week for six weeks, control mice 36,400) is reported as 23,800. The “growth as spheroids of cells isolated from in vivo metastases” value in assay [6] (mice treated 8 mg/kg twice per week six weeks, 2,000 cells/well, seven days, FIG. 28) is on record as “reduced”.

B3: MAb8: murine C-terminal anti-hPG monoclonal antibody, hybridoma 1C10D3B9, VH SEQ ID NO:59, VL SEQ ID NO:63 (antibody, V domains shown)
VH: EVQLVESGGGLVKPGGSLKLSCAASGFTFTTYAMSWVRQTPEKRLEWVATISSGGTYTYYPDSVKGRFTISRDNAKNALYLQMSSLRSEDTAMYYCATQGNYSLDFWGQGTSLTVSS
VL: DIVMTQAASSNPVTLGTSASISCRSSKSLRHTKGITFLYWYLQKPGQSPQLLIYQMSNLASGVPDRFSSSGSGTDFTLRISRVEAEDLGVYYCAQNLELPLTFGAGTKLELK
With B3, in assay [7], the “number of spheroids formed compared to non-specific antibody and medium alone” value is “effective to reduce the number spheroids”. Moreover, the “number of spheroids formed after pre-treatment compared to control” value in [8] is on record as “effective to reduce the number of spheroids”. Also, the “number of CRC1 cells expressing ALDH1 compared to control” value in assay [9] is reported as “reduce the number CRC1 primary colorectal cancer cells expressing ALDH1”.
